This note sets out measurements from PMC2837123.

This experiment deals with full-length wild type prototype foamy virus (PFV) integrase (prototype foamy virus (PFV)). Nature of the experiment: crystal structure.

As usually defined, the stoichiometry N is the number of molecules, sites or subunits per partner or assembly. For the substance “full-length wild type prototype foamy virus (PFV) integrase (enzyme)”, the stoichiometry N was found to be 4.
